Measured values: article PMC8307404, “Crystal Structure-Guided Design of Bisubstrate Inhibitors and Photoluminescent Probes for Protein Kinases of the PIM Family” (Molecules, 2021)
Square brackets hold non-standard residues; d marks the D form. Peptide text beside a SMILES is read from it. * marks the point of attachment. X3 = O=C(CCCCCNCc1nc2c(sc3cc(Br)cnc32)c(=O)[nH]1)*

Experiments:
Assay in all cases: Kinase profiling (radiometric filter-binding)
Format in all cases: biochemical
MARK2 = MARK2 (Homo sapiens, UniProt Q7KZI7); conditions: MARK2, 1 µM inhibitor; read-out: Residual activity, %
Outline: (§1)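 Each compound, at 1 µM final, is screened against human protein kinases in a radiometric filter-binding format. ATP is set at or under the KM of each kinase. Values give retained activity relative to a control lacking inhibitor.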

VEG-FR = molecular target: T1, VEG-FR (Homo sapiens, UniProt P17948); conditions: 1 µM inhibitor, read-out: Residual activity, %
T1 sequence (P17948 784-1338 limits assumed): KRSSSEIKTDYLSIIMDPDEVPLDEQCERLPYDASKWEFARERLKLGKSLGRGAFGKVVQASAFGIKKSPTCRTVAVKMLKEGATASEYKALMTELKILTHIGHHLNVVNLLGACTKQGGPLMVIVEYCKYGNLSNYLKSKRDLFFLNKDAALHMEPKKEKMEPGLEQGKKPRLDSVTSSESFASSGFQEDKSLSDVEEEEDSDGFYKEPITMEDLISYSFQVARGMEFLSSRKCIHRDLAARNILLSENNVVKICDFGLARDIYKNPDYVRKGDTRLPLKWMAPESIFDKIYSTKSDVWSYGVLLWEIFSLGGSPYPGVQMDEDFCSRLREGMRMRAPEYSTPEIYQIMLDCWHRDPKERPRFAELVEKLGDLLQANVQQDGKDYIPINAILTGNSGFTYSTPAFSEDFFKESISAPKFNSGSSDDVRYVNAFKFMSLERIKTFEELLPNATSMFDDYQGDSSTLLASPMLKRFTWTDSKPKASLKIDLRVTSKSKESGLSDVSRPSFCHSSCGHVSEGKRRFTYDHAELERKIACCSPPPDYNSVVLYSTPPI
Outline: as §1

JAK2 = JAK2 (Homo sapiens, UniProt O60674); conditions: JAK2, 1 µM inhibitor; read-out: Residual activity, %
Outline: as §1

NUAK1 = molecular target: T2, NUAK1 (Homo sapiens, UniProt O60285); conditions: NUAK1, 1 µM inhibitor; read-out: Residual activity, %
T2 sequence (O60285 1-661): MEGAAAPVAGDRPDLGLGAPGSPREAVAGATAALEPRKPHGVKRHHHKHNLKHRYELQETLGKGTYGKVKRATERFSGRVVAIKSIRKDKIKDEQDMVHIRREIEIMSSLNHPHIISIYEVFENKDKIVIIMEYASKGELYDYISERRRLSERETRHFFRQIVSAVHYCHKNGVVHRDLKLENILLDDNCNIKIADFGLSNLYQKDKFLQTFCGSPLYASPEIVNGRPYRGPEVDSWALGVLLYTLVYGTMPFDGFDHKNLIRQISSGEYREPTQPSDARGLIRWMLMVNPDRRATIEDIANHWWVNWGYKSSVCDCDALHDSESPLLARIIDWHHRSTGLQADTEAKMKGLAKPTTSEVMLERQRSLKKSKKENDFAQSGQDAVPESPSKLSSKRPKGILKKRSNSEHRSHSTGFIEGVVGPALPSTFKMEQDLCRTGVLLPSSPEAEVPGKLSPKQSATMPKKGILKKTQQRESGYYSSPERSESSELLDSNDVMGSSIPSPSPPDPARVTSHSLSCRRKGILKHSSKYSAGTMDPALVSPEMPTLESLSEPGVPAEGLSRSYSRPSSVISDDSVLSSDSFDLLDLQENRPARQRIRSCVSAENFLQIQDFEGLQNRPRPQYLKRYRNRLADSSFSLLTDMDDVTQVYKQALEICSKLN
Outline: as §1

p38 MAPK = p38 MAPK (Homo sapiens, UniProt Q16539); conditions: first of four lines (Greek letter lost), 1 µM inhibitor, read-out: Residual activity, %
Outline: as §1

BRSK1 = molecular target: T3, BRSK1 (Homo sapiens, UniProt Q8TDC3); conditions: BRSK1, 1 µM inhibitor; read-out: Residual activity, %
T3 sequence (Q8TDC3 1-778): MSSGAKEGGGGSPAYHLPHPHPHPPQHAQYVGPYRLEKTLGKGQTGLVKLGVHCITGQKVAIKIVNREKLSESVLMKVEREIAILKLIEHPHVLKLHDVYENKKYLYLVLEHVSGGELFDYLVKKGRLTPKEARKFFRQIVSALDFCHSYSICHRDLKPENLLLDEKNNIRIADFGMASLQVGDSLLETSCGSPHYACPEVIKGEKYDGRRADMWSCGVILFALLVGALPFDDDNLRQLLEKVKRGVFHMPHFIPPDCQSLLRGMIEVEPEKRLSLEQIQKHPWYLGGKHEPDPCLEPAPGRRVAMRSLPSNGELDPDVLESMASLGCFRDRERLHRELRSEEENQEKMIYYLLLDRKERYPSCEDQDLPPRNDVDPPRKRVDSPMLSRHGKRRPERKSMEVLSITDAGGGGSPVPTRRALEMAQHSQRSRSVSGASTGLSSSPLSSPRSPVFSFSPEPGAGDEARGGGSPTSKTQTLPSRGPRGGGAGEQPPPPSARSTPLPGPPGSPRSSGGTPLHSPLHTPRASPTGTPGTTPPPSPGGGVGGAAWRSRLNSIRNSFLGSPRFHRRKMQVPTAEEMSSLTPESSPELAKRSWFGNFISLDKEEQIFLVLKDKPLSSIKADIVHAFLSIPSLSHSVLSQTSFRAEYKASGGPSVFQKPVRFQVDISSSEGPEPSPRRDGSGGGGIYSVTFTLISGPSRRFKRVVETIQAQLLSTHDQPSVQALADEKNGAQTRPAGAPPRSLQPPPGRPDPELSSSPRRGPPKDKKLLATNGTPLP
Outline: as §1

ERK2 = ERK2 (Homo sapiens, UniProt P28482); conditions: ERK2, 1 µM inhibitor; read-out: Residual activity, %
Outline: as §1

EF2K = EF2K (Homo sapiens, UniProt O00418); conditions: 1 µM inhibitor, read-out: Residual activity, %
Outline: as §1

YES1 = YES1 (Homo sapiens, UniProt P07947); conditions: YES1, 1 µM inhibitor; read-out: Residual activity, %
Outline: as §1

CDK9-Cyclin T1 = CDK9-Cyclin T1 (Homo sapiens, UniProt P50750); conditions: CDK9-Cyclin T1, 1 µM inhibitor; read-out: Residual activity, %
Outline: as §1

Chain of YES1 (P07947 whole entry): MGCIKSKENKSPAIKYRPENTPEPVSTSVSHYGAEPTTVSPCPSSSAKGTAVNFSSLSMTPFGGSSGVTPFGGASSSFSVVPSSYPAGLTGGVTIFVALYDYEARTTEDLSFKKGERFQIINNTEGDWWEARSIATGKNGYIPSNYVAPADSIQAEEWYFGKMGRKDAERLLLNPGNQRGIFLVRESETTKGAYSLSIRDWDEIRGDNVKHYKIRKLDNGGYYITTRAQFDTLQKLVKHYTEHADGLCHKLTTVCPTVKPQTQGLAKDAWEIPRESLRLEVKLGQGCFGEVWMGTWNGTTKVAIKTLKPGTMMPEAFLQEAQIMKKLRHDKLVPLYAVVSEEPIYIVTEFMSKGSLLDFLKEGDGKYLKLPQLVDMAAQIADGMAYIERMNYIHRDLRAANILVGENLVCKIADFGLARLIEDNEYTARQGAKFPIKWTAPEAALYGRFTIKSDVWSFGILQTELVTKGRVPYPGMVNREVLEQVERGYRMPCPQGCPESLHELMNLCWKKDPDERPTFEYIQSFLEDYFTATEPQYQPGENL
Chain of p38 MAPK (Q16539 whole entry): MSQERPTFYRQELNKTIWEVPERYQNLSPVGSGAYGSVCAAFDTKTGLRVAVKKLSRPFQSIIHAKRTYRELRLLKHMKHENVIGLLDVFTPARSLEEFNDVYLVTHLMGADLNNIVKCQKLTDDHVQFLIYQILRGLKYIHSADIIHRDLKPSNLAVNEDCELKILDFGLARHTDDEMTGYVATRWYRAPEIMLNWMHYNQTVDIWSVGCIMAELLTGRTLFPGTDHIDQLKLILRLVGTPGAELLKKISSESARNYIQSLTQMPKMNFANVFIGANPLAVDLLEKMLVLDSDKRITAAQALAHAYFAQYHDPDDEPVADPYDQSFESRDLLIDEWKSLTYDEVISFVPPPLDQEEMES
Chain of MARK2 (Q7KZI7 whole entry): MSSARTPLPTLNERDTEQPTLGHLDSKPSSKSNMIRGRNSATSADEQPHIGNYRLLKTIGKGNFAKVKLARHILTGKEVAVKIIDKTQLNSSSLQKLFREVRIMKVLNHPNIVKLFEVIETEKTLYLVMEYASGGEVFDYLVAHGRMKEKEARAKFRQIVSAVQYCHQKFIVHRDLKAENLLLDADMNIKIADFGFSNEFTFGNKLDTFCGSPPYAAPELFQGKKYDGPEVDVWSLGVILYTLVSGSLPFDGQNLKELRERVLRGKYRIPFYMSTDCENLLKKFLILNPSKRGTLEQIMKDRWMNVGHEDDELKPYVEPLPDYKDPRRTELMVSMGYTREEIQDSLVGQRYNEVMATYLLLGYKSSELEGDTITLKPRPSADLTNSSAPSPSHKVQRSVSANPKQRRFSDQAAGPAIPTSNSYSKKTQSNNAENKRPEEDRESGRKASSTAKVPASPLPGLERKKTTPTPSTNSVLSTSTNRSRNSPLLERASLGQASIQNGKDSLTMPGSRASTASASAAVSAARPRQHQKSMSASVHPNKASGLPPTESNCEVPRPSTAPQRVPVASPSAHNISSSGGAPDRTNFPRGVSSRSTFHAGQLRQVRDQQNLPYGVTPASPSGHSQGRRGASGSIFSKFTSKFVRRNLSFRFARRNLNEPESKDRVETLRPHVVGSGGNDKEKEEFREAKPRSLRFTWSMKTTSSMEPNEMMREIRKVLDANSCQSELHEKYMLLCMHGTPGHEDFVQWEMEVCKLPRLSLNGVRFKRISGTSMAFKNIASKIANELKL
Chain of ERK2 (P28482 whole entry): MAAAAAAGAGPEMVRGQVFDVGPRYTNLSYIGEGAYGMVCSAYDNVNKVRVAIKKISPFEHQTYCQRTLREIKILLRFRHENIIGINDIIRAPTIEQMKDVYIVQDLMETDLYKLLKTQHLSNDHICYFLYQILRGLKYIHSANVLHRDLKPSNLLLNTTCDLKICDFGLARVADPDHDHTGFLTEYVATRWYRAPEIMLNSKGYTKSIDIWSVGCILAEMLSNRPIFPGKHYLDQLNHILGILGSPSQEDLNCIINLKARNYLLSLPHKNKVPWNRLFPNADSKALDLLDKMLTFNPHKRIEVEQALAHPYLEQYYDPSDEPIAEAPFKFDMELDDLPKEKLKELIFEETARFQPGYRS
Chain of CDK9-Cyclin T1 (P50750 whole entry): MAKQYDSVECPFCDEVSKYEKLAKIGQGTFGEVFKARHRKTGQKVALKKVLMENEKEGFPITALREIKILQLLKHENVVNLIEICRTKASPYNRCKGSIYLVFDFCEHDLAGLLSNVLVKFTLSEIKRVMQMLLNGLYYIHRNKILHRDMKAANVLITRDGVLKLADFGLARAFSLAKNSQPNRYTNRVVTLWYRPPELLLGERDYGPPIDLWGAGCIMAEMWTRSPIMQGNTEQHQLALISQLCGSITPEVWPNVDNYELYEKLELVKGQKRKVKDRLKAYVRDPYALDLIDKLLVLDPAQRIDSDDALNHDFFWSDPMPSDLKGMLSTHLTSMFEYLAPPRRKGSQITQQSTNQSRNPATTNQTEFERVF
Chain of CDK9-Cyclin T1 (O60563 whole entry partner): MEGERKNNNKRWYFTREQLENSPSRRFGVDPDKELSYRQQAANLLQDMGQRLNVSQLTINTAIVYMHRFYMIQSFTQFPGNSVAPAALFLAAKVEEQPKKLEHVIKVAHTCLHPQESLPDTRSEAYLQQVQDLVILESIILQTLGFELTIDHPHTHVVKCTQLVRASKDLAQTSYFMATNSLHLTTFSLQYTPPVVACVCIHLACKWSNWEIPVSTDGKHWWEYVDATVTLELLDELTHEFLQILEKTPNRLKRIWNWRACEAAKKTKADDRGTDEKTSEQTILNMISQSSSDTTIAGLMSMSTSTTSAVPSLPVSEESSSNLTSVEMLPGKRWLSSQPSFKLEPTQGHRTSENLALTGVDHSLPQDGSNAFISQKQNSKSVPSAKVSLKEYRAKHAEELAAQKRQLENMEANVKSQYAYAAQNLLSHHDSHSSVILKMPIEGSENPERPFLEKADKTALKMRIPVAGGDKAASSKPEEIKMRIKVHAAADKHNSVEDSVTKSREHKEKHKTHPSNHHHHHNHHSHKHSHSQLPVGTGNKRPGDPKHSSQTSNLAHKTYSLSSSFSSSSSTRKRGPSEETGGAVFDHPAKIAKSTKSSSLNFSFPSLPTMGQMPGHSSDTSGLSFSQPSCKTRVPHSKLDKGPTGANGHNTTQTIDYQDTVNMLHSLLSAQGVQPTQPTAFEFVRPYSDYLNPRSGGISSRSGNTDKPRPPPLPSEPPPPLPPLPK
Chain of JAK2 (O60674 whole entry): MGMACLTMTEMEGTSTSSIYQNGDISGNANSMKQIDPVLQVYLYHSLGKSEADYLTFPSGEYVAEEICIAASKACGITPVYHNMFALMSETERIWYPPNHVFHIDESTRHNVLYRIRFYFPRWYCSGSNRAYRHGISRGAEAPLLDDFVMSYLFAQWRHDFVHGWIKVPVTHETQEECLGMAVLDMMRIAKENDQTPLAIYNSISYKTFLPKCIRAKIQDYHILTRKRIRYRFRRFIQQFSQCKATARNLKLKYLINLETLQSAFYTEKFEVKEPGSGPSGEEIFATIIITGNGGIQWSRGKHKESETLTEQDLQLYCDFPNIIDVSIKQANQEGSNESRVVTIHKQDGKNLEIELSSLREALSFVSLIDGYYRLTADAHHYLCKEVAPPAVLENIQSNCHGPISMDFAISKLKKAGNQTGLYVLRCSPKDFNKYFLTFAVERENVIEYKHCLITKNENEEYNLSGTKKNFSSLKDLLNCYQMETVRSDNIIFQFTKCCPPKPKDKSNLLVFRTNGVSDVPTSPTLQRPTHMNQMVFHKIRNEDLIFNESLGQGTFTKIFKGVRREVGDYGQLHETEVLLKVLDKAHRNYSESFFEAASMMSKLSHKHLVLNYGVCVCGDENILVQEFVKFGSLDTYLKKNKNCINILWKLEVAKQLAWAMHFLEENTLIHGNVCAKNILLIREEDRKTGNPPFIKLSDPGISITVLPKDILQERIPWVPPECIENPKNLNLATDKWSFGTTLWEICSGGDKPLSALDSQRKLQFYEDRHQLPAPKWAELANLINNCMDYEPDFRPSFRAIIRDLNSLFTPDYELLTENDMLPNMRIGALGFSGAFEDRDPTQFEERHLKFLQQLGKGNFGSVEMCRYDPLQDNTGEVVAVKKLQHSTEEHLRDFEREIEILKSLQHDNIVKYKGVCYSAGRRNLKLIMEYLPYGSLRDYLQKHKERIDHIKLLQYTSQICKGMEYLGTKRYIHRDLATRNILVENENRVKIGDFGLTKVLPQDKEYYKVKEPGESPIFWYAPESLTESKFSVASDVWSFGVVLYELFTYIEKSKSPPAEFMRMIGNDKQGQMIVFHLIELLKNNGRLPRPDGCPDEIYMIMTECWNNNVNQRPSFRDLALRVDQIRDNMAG

Row | Compound | remaining activity at 1 µM (MARK2) [%] | remaining activity at 1 µM (VEG-FR) [%] | remaining activity at 1 µM (JAK2) [%] | remaining activity at 1 µM (NUAK1) [%] | remaining activity at 1 µM (p38 MAPK) [%] | remaining activity at 1 µM (BRSK1) [%] | remaining activity at 1 µM (ERK2) [%] | remaining activity at 1 µM (EF2K) [%] | remaining activity at 1 µM (YES1) [%] | remaining activity at 1 µM (CDK9-Cyclin T1) [%]
1 | N=C(N)NCCC[C@@H](NC(=O)CNC(=O)[C@@H](CCCNC(=N)N)NC(=O)[C@@H](CCCNC(=N)N)NC(=O)Cn1cc(CNCc2nc3c(sc4ccc(Br)cc43)c(=O)[nH]2)nn1)C(=O)N[C@H](CCCCN)C(N)=O [Compound 3, BBTP-Amt-(D-Arg)2-Gly-D-Arg-D-Lys-NH2] | 79 | 90 ± 5 | 72 ± 21 | 74 ± 6 | 110 ± 7 | 90 ± 11 | 104 ± 5 | 102 ± 3 | 124 ± 1 | 90 ± 18
2 | N=C(N)NCCC[C@@H](NC(=O)CCCCCNCc1nc2c(sc3cc(Br)cnc32)c(=O)[nH]1)C(=O)N[C@H](CCCNC(=N)N)C(=O)N[C@H](CCCNC(=N)N)C(=O)N[C@H](CCCNC(=N)N)C(=O)N[C@H](CCCNC(=N)N)C(=O)N[C@H](CCCNC(=N)N)C(=O)N[C@H](CCCCN)C(N)=O [ARC-3126, BPTP-Ahx-(D-Arg)6-D-Lys-NH2] (X3-[dR][dR][dR][dR][dR][dR][dK]-NH2) | 103 ± 7 | 85 | 116 ± 9 | 47 ± 7 | 116 ± 4 | 50 ± 10 | 166 ± 1 | 85 ± 10 | 98 ± 12 | 104 ± 3
3 | N=C(N)NCCC[C@@H](NC(=O)CCCCCNC(=O)Cn1cnc2c(I)c(I)c(I)c(I)c21)C(=O)N[C@H](CCCNC(=N)N)C(=O)N[C@H](CCCNC(=N)N)C(=O)N[C@H](CCCNC(=N)N)C(=O)N[C@H](CCCNC(=N)N)C(=O)N[C@H](CCCNC(=N)N)C(=O)N[C@H](CCCCN)C(N)=O [ARC-3125, TIBI-CH2-C(=O)-Ahx-(D-Arg)6-D-Lys-NH2] | 86 ± 4 | 95 ± 41 | 115 ± 5 | 7 ± 15 | 53 ± 8 | 84 ± 2 | 161 ± 4 | 103 ± 1 | 104 ± 8 | 55 ± 1
4 | N=C(N)NCCC[C@@H](NC(=O)CNC(=O)[C@@H](CCCNC(=N)N)NC(=O)[C@@H](CCCNC(=N)N)NC(=O)CCCCCCCNCc1nc2c(sc3cc(Br)cnc32)c(=O)[nH]1)C(=O)N[C@H](CCCCN)C(N)=O [Compound 1, BPTP-Aoc-(D-Arg)2-Gly-D-Arg-D-Lys-NH2] | 106 ± 10 | 110 ± 9 | 93 ± 14 | 95 ± 14 | 113 ± 10 | 107 ± 5 | 101 ± 14 | 104 ± 2 | 110 | 110 ± 10
5 | N=C(N)NCCC[C@@H](NC(=O)CNC(=O)[C@@H](CCCNC(=N)N)NC(=O)[C@@H](CCCNC(=N)N)NC(=O)CCCCCCCNCc1nc2c(sc3ccc(Br)cc32)c(=O)[nH]1)C(=O)N[C@H](CCCCN)C(N)=O [Compound 2, BBTP-Aoc-(D-Arg)2-Gly-D-Arg-D-Lys-NH2] | 107 ± 4 | 96 ± 3 | 82 ± 16 | 102 ± 14 | 116 ± 10 | 101 | 102 ± 1 | 98 ± 7 | 104 ± 12 | 101 ± 20
